Results from patent publication US10227388B2, “Peptides and combination of peptides for use in immunotherapy against non-small cell lung cancer and other cancers” (immatics biotechnologies GmbH, priority 2015, dated 2019).

target: HLA-A*02:01 (Homo sapiens, UniProt P04439, D140Y/D185E/D98H/E176V/E277Q/G131W/G231S/I119V/I121R/I166T/I218V/L300P/L318F/N151K/N90K/P208A/P217A/Q86G/Q94H/R138H/R169H/T345S); experiment: MHC binding assay (UV-ligand exchange, ELISA, peptide exchange yield); settings: binding of HLA-class I restricted peptides to HLA-A*02:01
How it was run: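 Exchange yield was quantified as stabilized β2m-containing complex: monomers diluted 100-fold bound to streptavidin-coated wells, probed with HRP-conjugated anti-β2m, read at 450 nm after TMB. Complexes had been generated by UV cleavage of a photolabile ligand and replacement with the candidate peptide.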

Substance	Peptide exchange (MHC class I binding score, peptide exchange yield)
593 (GLPRFGIEMV; listed as Homo sapiens) [compound 593]	″+++″ (≥50% = +++)
594 (IMLKGDNITL; listed as Homo sapiens) [compound 594]	″+++″ (≥50% = +++)
595 (VLLSIYPRV; listed as Homo sapiens) [compound 595]	″+++″ (≥50% = +++)
596 (ALLDQTKTLAESAL; listed as Homo sapiens) [compound 596]	″+++″ (≥50% = +++)
597 (KLLEGQVIQL; listed as Homo sapiens) [compound 597]	″+++″ (≥50% = +++)
598 (FLFPHSVLV; listed as Homo sapiens) [compound 598]	″+++″ (≥50% = +++)
599 (YLLNDASLISV; listed as Homo sapiens) [compound 599]	″+++″ (≥50% = +++)
600 (ALAAPDIVPAL; listed as Homo sapiens) [compound 600]	″+++″ (≥50% = +++)
601 (SAFPFPVTV; listed as Homo sapiens) [compound 601]	″+++″ (≥50% = +++)
602 (YLLEQIKLIEV; listed as Homo sapiens) [compound 602]	″++++″ (≥75% = ++++)
604 (SILDRDDIFV; listed as Homo sapiens) [compound 604]	″+++″ (≥50% = +++)
605 (KLYEAVPQL; listed as Homo sapiens) [compound 605]	″+++″ (≥50% = +++)
606 (ALWETEVYI; listed as Homo sapiens) [compound 606]	″+++″ (≥50% = +++)
607 (RLYSGISGLEL; listed as Homo sapiens) [compound 607]	″+++″ (≥50% = +++)
608 (SLLSVSHAL; listed as Homo sapiens) [compound 608]	″+++″ (≥50% = +++)
609 (ALWKQLLEL; listed as Homo sapiens) [compound 609]	″+++″ (≥50% = +++)
610 (LLAPTPYIIGV; listed as Homo sapiens) [compound 610]	″+++″ (≥50% = +++)
611 (YLLDDGTLVV; listed as Homo sapiens) [compound 611]	″++++″ (≥75% = ++++)
612 (YLYNEGLSV; listed as Homo sapiens) [compound 612]	″+++″ (≥50% = +++)
613 (RLLPPGAVVAV; listed as Homo sapiens) [compound 613]	″+++″ (≥50% = +++)
614 (LLLPDQPPYHL; listed as Homo sapiens) [compound 614]	″+++″ (≥50% = +++)

Second part, the substance after the results:

Peptide exchange (MHC class I binding score, peptide exchange yield)	Substance
″++″ (≥20% = ++)	615 (VLPPDTDPA; listed as Homo sapiens) [compound 615]
″+++″ (≥50% = +++)	616 (VLIDEVESL; listed as Homo sapiens) [compound 616]
″+++″ (≥50% = +++)	617 (ALMYESEKVGV; listed as Homo sapiens) [compound 617]
″+++″ (≥50% = +++)	618 (VLFDSESIGIYV; listed as Homo sapiens) [compound 618]
″+++″ (≥50% = +++)	619 (ALQDRVPLA; listed as Homo sapiens) [compound 619]
″++++″ (≥75% = ++++)	620 (KLLNKIYEA; listed as Homo sapiens) [compound 620]
″++++″ (≥75% = ++++)	621 (VLMDRLPSLL; listed as Homo sapiens) [compound 621]
″+++″ (≥50% = +++)	622 (RLLGEEVVRVLQA; listed as Homo sapiens) [compound 622]
″+++″ (≥50% = +++)	623 (YLVEDIQHI; listed as Homo sapiens) [compound 623]
″+++″ (≥50% = +++)	635 (SLDSTLHAV; listed as Homo sapiens) [compound 635]
